# Data reported in patent US20180186871A1 (SINGAPORE HEALTH SERVICES PTE, published 2018).
# T1: human IL-11 (human, UniProt P20809 22-199)
# T1 sequence (looked up): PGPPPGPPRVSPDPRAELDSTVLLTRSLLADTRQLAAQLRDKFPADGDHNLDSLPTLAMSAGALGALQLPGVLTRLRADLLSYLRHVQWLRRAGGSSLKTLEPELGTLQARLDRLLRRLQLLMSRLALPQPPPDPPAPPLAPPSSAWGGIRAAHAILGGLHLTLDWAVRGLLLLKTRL
# B1: YU100-H06 (scFv, not shown: a dimerising Fc or GST)
# scFv: QVQLVESGGGVVQPGRSLRLSCAASGFTFSSYGMHWVRQAPGKGLEWVAVISYDGSNKYYADSVKGRFTISRDNSKNTLYLQMNSLRAEDTAVYYCAKIGATDPLDYWGQGTLVTVSSGSASAPKLEEGEFSEARIQSALTQPRSVSGSPGQSVTISCTGTSSDVGGYNYVSWYQQHPGKAPKLMIYDVTKRPSGVPDRFSGSKSGNTASLTISGLQAEDEADYYCSSYAGSYTWVFGGGTKLTVL
# B2: YU100-B06 (scFv)
# scFv: QVQLVESGGGVVQPGRSLRLSCAASGFTFSSYGMHWVRQAPGKGLEWVAVISYDGSNKYYADSVKSRFTISRDNSKNTLYLQMNSLRAEDTAVYYCAKIGATDPLDYWGQGTLVTVSSGSASAPKLEEGEFSEARVQSALTQPASVSGSPGQSITISCTGTSSDVGGYNYVSWYQQHPGKAPKLMIYDVSKRPSGVPDRFSGSKSGNTASLTISGLQAEDEADYYCNSYAGSYTWVFGGGTKLTVL
# B3: YU100-E10 (scFv)
# scFv: QVQLVQSGGGVVQPGRSLRLSCAASGFTFSSYGMHWVRQAPGKGLEWVAVISYDGSNKYYADSVKGRFTISRDNSKNTLYLQMNSLRAEDTAVYYCAKIGATDPLDYWGQGTLVTVSSGSASAPKLEEGEFSEARVQSALTQPRSVSGSPGQSVTISCTGTSSDVGGYNYVSWYQQHPGKAPKLMIFDVSQRPSGVPDRFSASKSGNTASLTISGLQAEDEADYYCCSYAGSYTWVFGGGTKLTVL
# B4: YU100-E12 (scFv)
# scFv: QVQLVESGGGVVQPGRSLRLSCAASGFTFSSYGMHWVRQAPGKGLEWVAVISYDGSNKYYADSVKGRFTISRDNSKNTLYLQMNSLRAEDTAVYYCAKIGATDPLDYWGQGTLVTVSSGSASAPKLEEGEFSEARVQSALTQPASVSGSPGQSITISCTGTSSDVGGYNYVSWYQQHPGTAPKLMIYDVSNRPSGVSNRFSGSKSGNTASLTISGLQAEDEADYYCSSYTSSTTWVFGGGTKLTVL
# B5: YU100-F02 (scFv)
# scFv: EVQLVESGGGVVQPGRSLRLSCAASGFTFSSYGMHWVRQAPGKGLEWVAVISYDGSNKYYADSVKGRFTISRDNSKNTLYLQMNSLRAEDTAVYYCAKIGATDPLDYWGQGTLVTVSSGSASAPKLEEGEFSEARVQSALTQPRSVSGSPGQSVTISCTGTSSDVGGYNYVSWYQQHPGKAPKLMIYDVTKRPSGVPDRFSGSKSGNTASLTISGLQADDEADYYCCSYAGSYTWIFGGGTKLTVL
# B6: YU100-E07 (scFv)
# scFv: QVQLQESGGGVVQPGRSLRLSCAASGFTFSSYGMHWVRQAPGKGLEWVAVISYDGSNRYYADSVKGRFAISRDNSKNTLYLQMNSLRAEDTAVYYCAKIGATDPLDYWGQGTLVTVSSGSASAPKLEEGEFSEARVQSALTQPRSVSGSPGQSVTISCTGTSSDVGGYDYVSWYQQHPGKAPELMIYDVTKRPSGVADRFSGSKSGNTASLTISGLQAEDEADYYCCSYAGRYTWVFGGGTKLTVL
# B7: YU100-A11 (scFv)
# scFv: EVQLQQSGGGVVQPGRSLRLSCAASGFTFSSYGMHWVRQAPGKGLEWVAVISYDGSNKYYADSVKGRFTISRDNSKNTLYLQMNSLRAEDTAVYYCAKIGATDPLDYWGQGTLVTVSSGSASAPKLEEGEFSEARVQSALTQPRSVSGSPGQSVTISCTGTSSDVGGYNYVSWYQQHPGKAPKLMIYDVSKRPSGVPDRFSGSKSGNTASLTISGLQAEDEADYYCCSYAGSYTWVFGGGTKLTVL
# B8: YU100-B01 (scFv)
# scFv: QVQLVQSGGGVVQPGRSLRLSCAASGFTFSSYGMHWVRQAPGKGLEWVAVISYDGSNKYYADSVKGRFTISRDNSKNTLYLQMNSLRAEDTAVYYCAKIGATDPLDYWGQGTLVTVSSGSASAPKLEEGEFSEARVQSALTQPRSVSGSPGQSVTISCTGTNTDVGAYNYVSWYQQYPGKAPKLIIYDVSKRPSGVPDRFSGSKSGNTASLTISGLQAEDEADYYCCSYAGSYSWVFGGGTKLTVL
# B9: YU100-B07 (scFv)
# scFv: QVQLVESGGGVVQPGRSLRLSCAASGFTFSSYGMHWVRQAPGKGLEWVAVISYDGSNKYYADSVKGRFTISRDNSKNTLYLQMNSLRAEDTAVYYCAKIGATDPLDYWGQGTLVTVSSGSASAPKLEEGEFSEARVQSALTQPRSVSGSPGQSVTMSCTGTSRDVGGYNYVSWYQHHPGKAPKLMIYDVSKRPSGVPDRFSGSKSGNTASLTISELQAEDEADYYCCSYAGSYTWVFGGGTKLTVL
# B10: YU100-G01 (scFv)
# scFv: QVQLVQSGGGVVQPGRSLRLSCAASGFTFSSYGMHWVRQAPGKGLEWVAVISYDGSNKYYADSVKGRFTISRDNSKNTLYLQMNSLRAEDTAVYYCAKIGATDPLDYWGQGTLVTVSSGSASAPKLEEGEFSEARVQSALTQPRSVSASPGQSVTISCTGTSSDVGAYNYVSWYQQHPGKAPKLMLYDVNKRPSGVPDRFSGSKSGNTASLTISRLQAEDEADYYCCSYAGSYTWVFGGGTKLTVL
# B11: YU100-B03 (scFv)
# scFv: QVQLVQSGGGVVQPGRSLRLSCAASGFTFSSYGMHWVRQAPGKGLEWVAVISYDGSNKYYADSVKGRFTISRDNSKNTLYLQMNSLRAEDTAVYYCAKIGATDPLDYWGQGTLVTVSSGSASAPKLEEGEFSEARVQSVLTQPRSVSGSPGRSVTISCTGTSSDVGGYNYVSWYQQHPGKAPKLTLYDVVKRPSGVPDRYSGSKSGNTASLTISGLQAEDEADYYCCSYAGGYTWVFGGGTKVTVV
# B12: YU100-A12 (scFv)
# scFv: QVQLVESGGGVVQPGRSLRLSCAASGFTFSSYGMHWVRQAPGKGLEWVAVISYDGSNKYYADSVKGRFTISRDNSKNTLYLQMNSLRAEDTAVYYCAKIGATDPLDYWGQGTLVTVSSGSASAPKLEEGEFSEARVLPVLTQPRSVSGSPGQSVTISCTGTSSDVGGYNYVSWYQQHPGKAPKLMIYDVSKRPSGVPDRFSGSKSGDTASLTISGLQAEDEADYYCSSYAGSYTWVFGGGTKLTVL
# Molecular target: T1, human IL-11
# Experiment: cell-based or functional assay
# Further: test concentration or dose not given here.
Binder,"MMP2 production (ng/ml), TGFB1-stimulated human atrial fibroblasts, Experiment 1 (NEG 42.7, POS 70.2)","MMP2 production (ng/ml), TGFB1-stimulated human atrial fibroblasts, Experiment 2 (NEG 36.2, POS 62.3)"
B1,52.3 ng/mL,43.9 ng/mL
B2,47.6 ng/mL,49.6 ng/mL
B3,56.1 ng/mL,47 ng/mL
B4,56 ng/mL,47.9 ng/mL
B5,51.2 ng/mL,43.5 ng/mL
B6,52.1 ng/mL,46.5 ng/mL
B7,51.6 ng/mL,45.7 ng/mL
B8,52.5 ng/mL,40 ng/mL
B9,55.9 ng/mL,47.4 ng/mL
B10,56.6 ng/mL,49.7 ng/mL
B11,47.3 ng/mL,46.8 ng/mL
B12,59.5 ng/mL,50.4 ng/mL
